From patent US10087225B2, “Formulation of MK2 inhibitor peptides” (MOERAE MATRIX, INC., priority 2015, dated 2018)

Tests used:
Assay in all cases: Kinase Profiling Assay
Type in all cases: biochemical
Settings in all cases: for % activity: 100 μM
ASK1(h) = biological target: T1, ASK1(h) (Homo sapiens, UniProt Q99683)
T1 sequence (Q99683 1-1374): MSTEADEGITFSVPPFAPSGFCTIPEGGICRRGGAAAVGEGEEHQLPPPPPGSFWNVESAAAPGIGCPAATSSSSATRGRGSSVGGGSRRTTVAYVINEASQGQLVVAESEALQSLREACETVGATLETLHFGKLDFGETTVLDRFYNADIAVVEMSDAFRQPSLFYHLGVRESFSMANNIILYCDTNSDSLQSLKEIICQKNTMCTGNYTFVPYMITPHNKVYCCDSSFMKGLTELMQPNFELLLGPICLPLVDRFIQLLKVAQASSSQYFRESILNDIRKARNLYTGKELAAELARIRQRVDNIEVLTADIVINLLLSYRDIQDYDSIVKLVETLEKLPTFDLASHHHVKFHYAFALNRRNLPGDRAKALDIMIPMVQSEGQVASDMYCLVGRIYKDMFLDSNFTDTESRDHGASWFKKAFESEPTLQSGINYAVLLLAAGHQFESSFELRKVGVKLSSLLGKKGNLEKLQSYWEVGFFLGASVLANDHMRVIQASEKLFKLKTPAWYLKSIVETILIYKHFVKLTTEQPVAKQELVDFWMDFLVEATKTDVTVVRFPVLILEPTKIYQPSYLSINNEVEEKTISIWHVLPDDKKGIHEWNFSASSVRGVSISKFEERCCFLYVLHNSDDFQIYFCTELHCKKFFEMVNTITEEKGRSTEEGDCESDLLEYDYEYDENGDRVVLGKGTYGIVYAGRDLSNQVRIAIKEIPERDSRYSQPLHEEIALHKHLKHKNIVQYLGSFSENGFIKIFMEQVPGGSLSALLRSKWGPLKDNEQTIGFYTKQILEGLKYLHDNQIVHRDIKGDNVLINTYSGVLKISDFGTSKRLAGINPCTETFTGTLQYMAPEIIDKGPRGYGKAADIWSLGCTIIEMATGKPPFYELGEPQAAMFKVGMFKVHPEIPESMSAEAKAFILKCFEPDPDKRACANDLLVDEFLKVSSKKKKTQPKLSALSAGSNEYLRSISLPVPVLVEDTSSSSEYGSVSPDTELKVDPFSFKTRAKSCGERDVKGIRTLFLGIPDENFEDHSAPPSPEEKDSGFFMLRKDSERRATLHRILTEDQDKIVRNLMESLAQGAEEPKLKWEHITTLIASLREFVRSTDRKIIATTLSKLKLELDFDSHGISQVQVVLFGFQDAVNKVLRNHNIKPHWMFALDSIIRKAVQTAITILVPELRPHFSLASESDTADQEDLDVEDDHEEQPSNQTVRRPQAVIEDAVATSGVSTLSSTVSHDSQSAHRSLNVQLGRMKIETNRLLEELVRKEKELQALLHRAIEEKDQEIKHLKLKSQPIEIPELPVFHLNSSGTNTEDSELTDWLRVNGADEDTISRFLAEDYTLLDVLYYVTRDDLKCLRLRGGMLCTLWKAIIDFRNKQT

DRAK1(h) = biological target: T2, DRAK1(h) (Homo sapiens, UniProt Q9UEE5)
T2 sequence (Q9UEE5 1-414): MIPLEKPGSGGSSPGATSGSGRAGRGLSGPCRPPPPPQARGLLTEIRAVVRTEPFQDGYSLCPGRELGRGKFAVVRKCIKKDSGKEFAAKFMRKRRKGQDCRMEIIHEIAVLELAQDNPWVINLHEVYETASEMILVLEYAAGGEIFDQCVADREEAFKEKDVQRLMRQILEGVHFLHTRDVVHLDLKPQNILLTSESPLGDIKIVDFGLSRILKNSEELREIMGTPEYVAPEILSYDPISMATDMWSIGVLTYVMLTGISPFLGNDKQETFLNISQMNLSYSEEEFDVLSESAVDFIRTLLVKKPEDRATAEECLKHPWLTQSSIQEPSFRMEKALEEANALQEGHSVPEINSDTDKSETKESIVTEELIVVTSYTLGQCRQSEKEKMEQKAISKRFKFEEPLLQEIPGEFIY

MAPKAP-K2(h) = MAPKAP-K2(h) (Homo sapiens, UniProt P49137)
Chain of MAPKAP-K2(h) (P49137 whole entry): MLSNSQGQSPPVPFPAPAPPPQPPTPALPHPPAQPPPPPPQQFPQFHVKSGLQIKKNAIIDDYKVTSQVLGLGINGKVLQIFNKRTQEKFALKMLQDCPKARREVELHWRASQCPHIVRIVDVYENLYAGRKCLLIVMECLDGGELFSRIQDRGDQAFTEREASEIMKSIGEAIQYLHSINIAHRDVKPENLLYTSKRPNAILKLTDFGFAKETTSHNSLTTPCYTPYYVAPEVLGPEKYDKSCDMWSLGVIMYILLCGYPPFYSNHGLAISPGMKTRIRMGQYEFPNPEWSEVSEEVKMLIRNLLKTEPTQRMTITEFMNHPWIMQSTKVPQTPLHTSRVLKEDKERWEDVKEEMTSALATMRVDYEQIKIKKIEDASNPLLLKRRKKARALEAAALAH

PKCμ(h) = biological target: T3, PKCμ(h) (Homo sapiens, UniProt Q15139)
T3 sequence (Q15139 1-912): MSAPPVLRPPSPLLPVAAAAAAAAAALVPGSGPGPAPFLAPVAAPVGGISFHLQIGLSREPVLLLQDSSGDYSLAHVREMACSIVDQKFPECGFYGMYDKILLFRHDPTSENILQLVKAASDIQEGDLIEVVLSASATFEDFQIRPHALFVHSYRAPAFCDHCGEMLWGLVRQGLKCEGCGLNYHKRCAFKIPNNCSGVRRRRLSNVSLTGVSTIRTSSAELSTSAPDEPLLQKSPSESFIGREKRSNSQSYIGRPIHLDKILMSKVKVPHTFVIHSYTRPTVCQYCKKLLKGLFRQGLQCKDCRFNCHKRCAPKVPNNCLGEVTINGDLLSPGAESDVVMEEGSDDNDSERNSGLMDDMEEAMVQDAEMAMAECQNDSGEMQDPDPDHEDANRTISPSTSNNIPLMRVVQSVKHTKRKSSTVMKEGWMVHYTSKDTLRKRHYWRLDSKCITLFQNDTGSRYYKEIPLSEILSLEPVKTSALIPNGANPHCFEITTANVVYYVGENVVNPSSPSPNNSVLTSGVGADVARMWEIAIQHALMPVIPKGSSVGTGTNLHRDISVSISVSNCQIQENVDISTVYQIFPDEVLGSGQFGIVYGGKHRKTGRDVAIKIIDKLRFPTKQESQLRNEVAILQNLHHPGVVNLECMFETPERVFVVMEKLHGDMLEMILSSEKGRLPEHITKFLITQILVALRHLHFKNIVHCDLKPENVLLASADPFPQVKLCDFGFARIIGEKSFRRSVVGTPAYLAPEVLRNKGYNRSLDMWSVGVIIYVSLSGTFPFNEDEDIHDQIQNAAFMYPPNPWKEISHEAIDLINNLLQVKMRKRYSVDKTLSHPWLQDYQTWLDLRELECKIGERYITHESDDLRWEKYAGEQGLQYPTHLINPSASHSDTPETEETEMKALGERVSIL

SRPK1(h) = SRPK1(h) (Homo sapiens, UniProt Q96SB4)
Chain of SRPK1(h) (Q96SB4 whole entry): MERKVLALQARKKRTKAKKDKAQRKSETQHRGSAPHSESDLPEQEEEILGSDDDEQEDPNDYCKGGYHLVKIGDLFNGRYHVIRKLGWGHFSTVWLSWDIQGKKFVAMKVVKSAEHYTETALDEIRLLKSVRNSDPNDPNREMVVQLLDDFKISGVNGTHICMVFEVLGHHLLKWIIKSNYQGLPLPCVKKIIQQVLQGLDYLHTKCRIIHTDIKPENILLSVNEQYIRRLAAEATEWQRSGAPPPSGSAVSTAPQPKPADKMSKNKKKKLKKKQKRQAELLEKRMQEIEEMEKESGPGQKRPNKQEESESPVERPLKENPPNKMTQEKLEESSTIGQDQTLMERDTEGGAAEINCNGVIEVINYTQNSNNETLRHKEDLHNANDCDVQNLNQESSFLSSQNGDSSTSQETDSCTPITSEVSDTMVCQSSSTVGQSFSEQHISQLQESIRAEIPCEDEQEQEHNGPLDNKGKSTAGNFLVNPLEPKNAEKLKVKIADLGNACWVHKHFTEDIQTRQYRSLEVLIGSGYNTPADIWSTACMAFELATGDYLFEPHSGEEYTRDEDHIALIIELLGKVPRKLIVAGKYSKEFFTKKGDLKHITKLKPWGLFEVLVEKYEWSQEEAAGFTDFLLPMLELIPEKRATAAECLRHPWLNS

TrkB(h) = TrkB(h) (Homo sapiens, UniProt Q16620)
WNK3(h) = WNK3(h) (Homo sapiens, UniProt Q9BYP7)
Chain of WNK3(h) (Q9BYP7 whole entry): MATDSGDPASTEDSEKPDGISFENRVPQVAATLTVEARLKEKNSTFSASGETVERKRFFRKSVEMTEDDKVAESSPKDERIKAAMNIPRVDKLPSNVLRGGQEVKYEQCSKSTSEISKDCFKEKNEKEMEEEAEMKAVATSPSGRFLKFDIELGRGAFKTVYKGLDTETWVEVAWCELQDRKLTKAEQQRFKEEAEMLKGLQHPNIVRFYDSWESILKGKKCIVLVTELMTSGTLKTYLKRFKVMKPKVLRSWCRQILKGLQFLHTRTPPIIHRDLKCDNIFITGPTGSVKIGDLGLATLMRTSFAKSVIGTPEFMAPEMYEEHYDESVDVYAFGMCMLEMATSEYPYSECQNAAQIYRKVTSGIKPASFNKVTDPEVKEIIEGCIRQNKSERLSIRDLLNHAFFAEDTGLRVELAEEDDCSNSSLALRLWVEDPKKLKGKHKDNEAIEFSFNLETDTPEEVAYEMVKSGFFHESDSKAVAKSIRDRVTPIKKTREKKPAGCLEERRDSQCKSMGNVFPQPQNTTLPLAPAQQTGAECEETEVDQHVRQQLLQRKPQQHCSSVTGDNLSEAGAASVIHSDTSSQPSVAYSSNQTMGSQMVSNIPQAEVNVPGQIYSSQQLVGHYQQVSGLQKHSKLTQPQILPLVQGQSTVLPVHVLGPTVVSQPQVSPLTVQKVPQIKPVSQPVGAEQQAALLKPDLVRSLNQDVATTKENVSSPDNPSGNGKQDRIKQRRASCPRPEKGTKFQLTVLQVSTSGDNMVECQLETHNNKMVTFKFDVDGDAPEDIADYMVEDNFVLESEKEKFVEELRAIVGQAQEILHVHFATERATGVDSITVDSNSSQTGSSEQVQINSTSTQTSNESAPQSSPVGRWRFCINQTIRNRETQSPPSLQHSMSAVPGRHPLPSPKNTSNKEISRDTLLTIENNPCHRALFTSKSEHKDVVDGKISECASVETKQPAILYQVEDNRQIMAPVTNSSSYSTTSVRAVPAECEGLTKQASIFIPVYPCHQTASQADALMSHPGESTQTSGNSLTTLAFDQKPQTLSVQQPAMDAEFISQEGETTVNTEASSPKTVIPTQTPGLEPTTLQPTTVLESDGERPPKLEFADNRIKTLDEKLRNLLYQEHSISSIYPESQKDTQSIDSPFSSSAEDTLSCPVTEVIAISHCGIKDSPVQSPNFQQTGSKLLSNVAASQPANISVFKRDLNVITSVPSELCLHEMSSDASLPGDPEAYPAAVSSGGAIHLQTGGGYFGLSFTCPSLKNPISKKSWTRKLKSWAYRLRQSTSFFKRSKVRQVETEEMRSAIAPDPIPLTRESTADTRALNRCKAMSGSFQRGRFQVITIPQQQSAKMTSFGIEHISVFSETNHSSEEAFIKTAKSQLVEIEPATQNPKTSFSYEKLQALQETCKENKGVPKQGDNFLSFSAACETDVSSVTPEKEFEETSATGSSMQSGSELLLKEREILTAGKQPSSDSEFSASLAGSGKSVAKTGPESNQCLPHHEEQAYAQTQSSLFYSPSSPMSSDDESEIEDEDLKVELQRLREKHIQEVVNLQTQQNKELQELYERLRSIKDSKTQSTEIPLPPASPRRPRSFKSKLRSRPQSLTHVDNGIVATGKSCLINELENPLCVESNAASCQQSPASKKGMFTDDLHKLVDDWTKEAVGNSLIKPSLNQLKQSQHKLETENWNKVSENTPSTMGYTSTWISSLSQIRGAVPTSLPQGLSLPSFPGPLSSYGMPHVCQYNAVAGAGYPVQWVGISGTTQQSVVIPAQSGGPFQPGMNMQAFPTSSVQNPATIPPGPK

| Substance | activity at 100 µM (ASK1(h)) [%] | activity at 100 µM (DRAK1(h)) [%] | activity at 100 µM (MAPKAP-K2(h)) [%] | activity at 100 µM (PKCμ(h)) [%] | activity at 100 µM (SRPK1(h)) [%] | activity at 100 µM (TrkB(h)) [%] | activity at 100 µM (WNK3(h)) [%] | % activity (ASK1(h)) [%] | % activity (DRAK1(h)) [%] | % activity (MAPKAP-K2(h)) [%] | % activity (PKCμ(h)) [%] | % activity (SRPK1(h)) [%] | % activity (TrkB(h)) [%] | % activity (WNK3(h)) [%] |
| --- | --- | --- | --- | --- | --- | --- | --- | --- | --- | --- | --- | --- | --- | --- |
| H-YARAAARQARAKALARQLGVAA-OH [MMI-0100] | 100 | 47 | 19 | 79 | 69 | 4 | 100 |  |  |  |  |  |  |  |
| HRRIKAWLKKIKALARQLGVAA (Mammalian) [MMI-0500] |  |  |  |  |  |  |  | -4 | 8 | 9 | 10 | 80 | 12 | 9 |
| YARAAARQARAKALNRQLGVA (Mammalian) [MMI-0200] |  |  |  |  |  |  |  | 101 | 34 | 35 | 73 | 93 | 7 | 97 |
